Substitutions are numbered along the chain they refer to.
T1: human CX3CR1 receptor (human, UniProt P49238 1-355)
T1 construct: Expressed on stably transfected HEK or CHO cells, or endogenous on human PBMC (CD8+ T cells, NK cells); also called HEK-CX3CR1 cells; CHO-CX3CR1 cells
T1 sequence: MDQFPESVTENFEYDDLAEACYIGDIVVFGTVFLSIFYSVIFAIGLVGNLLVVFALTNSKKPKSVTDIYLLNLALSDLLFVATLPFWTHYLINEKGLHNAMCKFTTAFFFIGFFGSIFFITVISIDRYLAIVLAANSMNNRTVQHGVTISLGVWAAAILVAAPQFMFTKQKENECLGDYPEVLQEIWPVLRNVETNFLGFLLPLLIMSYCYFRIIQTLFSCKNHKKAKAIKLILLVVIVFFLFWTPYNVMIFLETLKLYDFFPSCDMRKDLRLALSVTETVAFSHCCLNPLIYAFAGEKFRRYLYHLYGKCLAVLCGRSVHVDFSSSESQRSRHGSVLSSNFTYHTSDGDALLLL

B1: F1 (CX3CL1 analogue, soluble chemokine domain with N-terminal sequence ILDNGVS) (ligand)
chain: ILDNGVSKCNITCSKMTSKIPVALLIHYQQNQASCGKRAIILETRQHRLFCADPKEQWVKDAMQHLDRQAAALTRNG
notes: also called F1 analogue; soluble F1
B2: phage-displayed CX3CL1 mutant with N-terminal sequence QLFALS (other, not shown: large carriers)
chain: QLFALSKCNITCSKMTSKIPVALLIHYQQNQASCGKRAIILETRQHRLFCADPKEQWVKDAMQHLDRQAAALTRNG
notes: Selected phage clone (antagonist selection); not tested singly
B3: phage-displayed CX3CL1 mutant with N-terminal sequence QSLVLP (other, not shown: large carriers)
chain: B2 chain with L2S, F3L, A4V, S6P
notes: as for B2
B4: phage-displayed CX3CL1 mutant with N-terminal sequence VQSVLS (other, not shown: large carriers)
chain: B2 chain with Q1V, L2Q, F3S, A4V
notes: as for B2
B5: phage-displayed CX3CL1 mutant with N-terminal sequence ILDNGVA (other, not shown: large carriers)
chain: B1 chain with S7A
notes: as for B2
B6: phage-displayed CX3CL1 mutant with N-terminal sequence FLQSDVA (other, not shown: large carriers)
chain: B1 chain with I1F, D3Q, N4S, G5D, S7A
notes: as for B2
B7: phage-displayed CX3CL1 mutant with N-terminal sequence ILDGGVS (other, not shown: large carriers)
chain: B1 chain with N4G
notes: as for B2
B8: phage-displayed CX3CL1 mutant with N-terminal sequence ILDLGLS (other, not shown: large carriers)
chain: B1 chain with N4L, V6L
notes: as for B2
B9: phage-displayed CX3CL1 mutant with N-terminal sequence ILDLGLT (other, not shown: large carriers)
chain: B1 chain with N4L, V6L, S7T
notes: as for B2
B10: phage-displayed CX3CL1 mutant with N-terminal sequence ILGRDVA (other, not shown: large carriers)
chain: B1 chain with D3G, N4R, G5D, S7A
notes: as for B2
B11: phage-displayed CX3CL1 mutant with N-terminal sequence QPLFAVA (other, not shown: large carriers)
chain: B1 chain with I1Q, L2P, D3L, N4F, G5A, S7A
notes: as for B2
B12: phage-displayed CX3CL1 mutant with N-terminal sequence QRDSVLA (other, not shown: large carriers)
chain: B1 chain with I1Q, L2R, N4S, G5V, V6L, S7A
notes: as for B2
B13: phage-displayed CX3CL1 mutant with N-terminal sequence SLDHGLS (other, not shown: large carriers)
chain: B1 chain with I1S, N4H, V6L
notes: as for B2
B14: phage-displayed CX3CL1 mutant with N-terminal sequence SLIPVVP (other, not shown: large carriers)
chain: B1 chain with I1S, D3I, N4P, G5V, S7P
notes: as for B2
B15: phage-displayed CX3CL1 mutant with N-terminal sequence TLAQGLP (other, not shown: large carriers)
chain: B1 chain with I1T, D3A, N4Q, V6L, S7P
notes: as for B2
B16: phage-displayed CX3CL1 mutant with N-terminal sequence TLPQGLA (other, not shown: large carriers)
chain: B1 chain with I1T, D3P, N4Q, V6L, S7A
notes: as for B2
B17: phage-displayed CX3CL1 mutant with N-terminal sequence WLSQGLA (other, not shown: large carriers)
chain: B1 chain with I1W, D3S, N4Q, V6L, S7A
notes: as for B2
B18: phage-displayed CX3CL1 mutant with N-terminal sequence AAQGMS (other, not shown: large carriers)
chain: B2 chain with Q1A, L2A, F3Q, A4G, L5M
notes: Selected phage clone (agonist selection); not tested singly
B19: phage-displayed CX3CL1 mutant with N-terminal sequence GPQAMS (other, not shown: large carriers)
chain: B2 chain with Q1G, L2P, F3Q, L5M
notes: as for B18
B20: phage-displayed CX3CL1 mutant with N-terminal sequence NPQALS (other, not shown: large carriers)
chain: B2 chain with Q1N, L2P, F3Q
notes: as for B18
B21: phage-displayed CX3CL1 mutant with N-terminal sequence QFPGVS (other, not shown: large carriers)
chain: B2 chain with L2F, F3P, A4G, L5V
notes: as for B18
B22: phage-displayed CX3CL1 mutant with N-terminal sequence QHLGLS (other, not shown: large carriers)
chain: B2 chain with L2H, F3L, A4G
notes: as for B18
B23: phage-displayed CX3CL1 mutant with N-terminal sequence QLLGVS (other, not shown: large carriers)
chain: B2 chain with F3L, A4G, L5V
notes: as for B18
B24: phage-displayed CX3CL1 mutant with N-terminal sequence QLQGLA (other, not shown: large carriers)
chain: B2 chain with F3Q, A4G, S6A
notes: as for B18
B25: phage-displayed CX3CL1 mutant with N-terminal sequence QPGAVS (other, not shown: large carriers)
chain: B2 chain with L2P, F3G, L5V
notes: as for B18
B26: phage-displayed CX3CL1 mutant with N-terminal sequence QPGGVS (other, not shown: large carriers)
chain: B2 chain with L2P, F3G, A4G, L5V
notes: as for B18
B27: phage-displayed CX3CL1 mutant with N-terminal sequence QPHGVA (other, not shown: large carriers)
chain: B2 chain with L2P, F3H, A4G, L5V, S6A
notes: as for B18
B28: phage-displayed CX3CL1 mutant with N-terminal sequence QPMGVA (other, not shown: large carriers)
chain: B2 chain with L2P, F3M, A4G, L5V, S6A
notes: as for B18
B29: phage-displayed CX3CL1 mutant with N-terminal sequence QPQAVS (other, not shown: large carriers)
chain: B2 chain with L2P, F3Q, L5V
notes: as for B18
B30: phage-displayed CX3CL1 mutant with N-terminal sequence QPQGLA (other, not shown: large carriers)
chain: B2 chain with L2P, F3Q, A4G, S6A
notes: as for B18
B31: phage-displayed CX3CL1 mutant with N-terminal sequence QPRALP (other, not shown: large carriers)
chain: B2 chain with L2P, F3R, S6P
notes: as for B18
B32: phage-displayed CX3CL1 mutant with N-terminal sequence QPSALS (other, not shown: large carriers)
chain: B2 chain with L2P, F3S
notes: as for B18
B33: phage-displayed CX3CL1 mutant with N-terminal sequence QPSALT (other, not shown: large carriers)
chain: B2 chain with L2P, F3S, S6T
notes: as for B18
B34: phage-displayed CX3CL1 mutant with N-terminal sequence QPSGMS (other, not shown: large carriers)
chain: B2 chain with L2P, F3S, A4G, L5M
notes: as for B18
B35: phage-displayed CX3CL1 mutant with N-terminal sequence QPVALA (other, not shown: large carriers)
chain: B2 chain with L2P, F3V, S6A
notes: as for B18
B36: phage-displayed CX3CL1 mutant with N-terminal sequence QPVAVA (other, not shown: large carriers)
chain: B2 chain with L2P, F3V, L5V, S6A
notes: as for B18
B37: phage-displayed CX3CL1 mutant with N-terminal sequence QPVAVS (other, not shown: large carriers)
chain: B2 chain with L2P, F3V, L5V
notes: as for B18
B38: phage-displayed CX3CL1 mutant with N-terminal sequence QPVGLS (other, not shown: large carriers)
chain: B2 chain with L2P, F3V, A4G
notes: as for B18
B39: phage-displayed CX3CL1 mutant with N-terminal sequence QPYGMS (other, not shown: large carriers)
chain: B2 chain with L2P, F3Y, A4G, L5M
notes: as for B18
B40: phage-displayed CX3CL1 mutant with N-terminal sequence QPYGVS (other, not shown: large carriers)
chain: B2 chain with L2P, F3Y, A4G, L5V
notes: as for B18
B41: phage-displayed CX3CL1 mutant with N-terminal sequence QSLGVS (other, not shown: large carriers)
chain: B2 chain with L2S, F3L, A4G, L5V
notes: as for B18
B42: phage-displayed CX3CL1 mutant with N-terminal sequence QSPGMS (other, not shown: large carriers)
chain: B2 chain with L2S, F3P, A4G, L5M
notes: as for B18
B43: phage-displayed CX3CL1 mutant with N-terminal sequence QVQGVT (other, not shown: large carriers)
chain: B2 chain with L2V, F3Q, A4G, L5V, S6T
notes: as for B18

Molecular target: T1, human CX3CR1 receptor
Assay: competitive radioligand binding, HEK-CX3CR1 cells, [125I]-CX3CL1 tracer
Procedure: Assays were performed as previously described by Moatti et al. (2001, Blood 97, 1925-8). Competitive binding to HEK-CX3CR1 and CHO-CX3CR1 cells was performed with 50 pM [¹²⁵I]-CX3CL1 (Amersham General Electric, Saclay, France) plus variable amounts of unlabeled ligand. Each concentration was assayed in duplicate. After 2 h at 37° C., cells were washed and radioactivity in the cell pellet was quantified with a gamma counter (LKB Wallac, Saint Quentin en Yvelines, France).
CX3CL1 in a competition binding, with HEK-CX3CR1 cells and [¹²⁵I]-CX3CL1 as a tracer. The F1 analogue interacted with CX3CR1, although with a lower affinity than CX3CL1. […] A similar difference in affinity was apparent when F1 and CX3CL1 were tested on CHO-CX3CR1 cells, and when the affinity of CX3CL1-Ig was compared to that of F1-Ig.

| Binder | IC50 | Log IC50 |
| --- | --- | --- |
| B1 | 1.9 nM | -8.73 |

Molecular target: T1, human CX3CR1 receptor
Assay: phage display selection on HEK-CX3CR1 cells, elution with soluble CX3CL1
Procedure: Phage particles are represented as cylinders (encapsulated phage genome) with multiple heads (pIII-CX3CL1 mutant fusion). […] (3) Stringent washing was used to remove nonspecifically bound phage. (4) An excess of soluble CX3CL1 (sCX3CL1) was added to remove surface-associated phage. Eluted phages were allowed to infect E. coli, and stocks of selected phages were prepared to be used in a new round of selection (steps 1 to 4).
A phage library of CX3CL1 mutants (10¹⁰ CFU) was directly incubated with 5.10⁶ HEK-CX3CR1 or HEK-CCR5 cells growing in 25 cm² tissue culture flasks (Becton Dickinson, Le Pont de Claix, France) at 37° C. at 5% CO₂ in 5 ml of supplemented RPMI-1640 medium. After 1 h, cells were washed 10 times at room temperature with 10 ml of phosphate-buffered saline (PBS) and then scraped from the plate into 10 ml of PBS-0.5% BSA. Cells were then pelleted and incubated for 20 min on ice in elution buffer consisting of an excess of soluble CX3CL1 (10 μM in 100 μl PBS-BSA). Cells were centrifuged (1000×g for 5 min) and supernatant was mixed with log-phase E. coli TG1 for production and purification of stock phage to be used in further rounds of selection, as described by Hartley et al. (2003, J Virol 77, 6637-44).

| Binder | binding result |
| --- | --- |
| B2 | binds |
| B3 | binds |
| B4 | binds |
| B5 | binds |
| B6 | binds |
| B7 | binds |
| B8 | binds |
| B9 | binds |
| B10 | binds |
| B11 | binds |
| B12 | binds |
| B13 | binds |
| B14 | binds |
| B15 | binds |
| B16 | binds |
| B17 | binds |

Molecular target: T1, human CX3CR1 receptor
Assay: phage display selection on HEK-CX3CR1 cells, recovery of endocytosed phages

| Binder | binding result |
| --- | --- |
| B18 | binds |
| B19 | binds |
| B20 | binds |
| B21 | binds |
| B22 | binds |
| B23 | binds |
| B24 | binds |
| B25 | binds |
| B26 | binds |
| B27 | binds |
| B28 | binds |
| B29 | binds |
| B30 | binds |
| B31 | binds |
| B32 | binds |
| B33 | binds |
| B34 | binds |
| B35 | binds |
| B36 | binds |
| B37 | binds |
| B38 | binds |
| B39 | binds |
| B40 | binds |
| B41 | binds |
| B42 | binds |
| B43 | binds |

Source: patent US20120141538A1 (UNIVERSITE PIERRE ET MARIE CURIE PARIS VI, published 2012)
